Two substances from PMC3786575 can be followed below.

In this assay the target is USF-1-Flag (UniProt P22415).
Chain of UniProt P22415 (P22415 whole entry): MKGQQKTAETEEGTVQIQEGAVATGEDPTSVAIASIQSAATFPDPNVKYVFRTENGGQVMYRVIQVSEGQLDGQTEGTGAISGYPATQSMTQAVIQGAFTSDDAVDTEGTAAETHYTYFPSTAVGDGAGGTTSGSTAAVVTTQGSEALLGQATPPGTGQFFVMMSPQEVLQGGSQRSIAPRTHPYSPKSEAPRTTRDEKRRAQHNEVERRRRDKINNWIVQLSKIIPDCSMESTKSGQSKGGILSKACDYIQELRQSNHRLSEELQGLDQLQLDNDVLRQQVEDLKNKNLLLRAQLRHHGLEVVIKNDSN

For “BAF60c-HA (from UniProt Q6STE5 1-483) (natural protein)”, the USF-dependent FAS promoter activation, luciferase reporter (Fig. 3D) worked out at 4 fold. Take “HA-tagged BAF60c S247D (from UniProt Q6STE5 1-483) (natural protein)”: the USF-dependent FAS promoter activation, luciferase reporter (Fig. 3D) stood at 4 fold.
